# Test results from PMC5958903.
# Biological target: brain-derived neurotrophic factor
# Assay: native gel or EMSA
substance,measurement,value
"soluble, recombinant extracellular domain of tropomyosin receptor kinase B (from UniProt Q16620 32-430)",stoichiometry N (TrkB per BDNF dimer),1
